In patent US20220177560A1:

Key:
[1] = biological target: cynomolgus FcRn (cynomolgus) (UniProt Q8SPV9); assay: FcRn binding affinity; method not described; average of 5-6 replicates
human FcRn (human) = human FcRn (human) (UniProt P55899); assay: as above
[2] = biological target: HU-3pE-beta-Amyloid (human); assay: SPR; HU-3pE-beta-Amyloid 0.6 to 4.5 nM

Chain of human FcRn (human) (P55899 24-297 limits assumed, chain 1 of 2): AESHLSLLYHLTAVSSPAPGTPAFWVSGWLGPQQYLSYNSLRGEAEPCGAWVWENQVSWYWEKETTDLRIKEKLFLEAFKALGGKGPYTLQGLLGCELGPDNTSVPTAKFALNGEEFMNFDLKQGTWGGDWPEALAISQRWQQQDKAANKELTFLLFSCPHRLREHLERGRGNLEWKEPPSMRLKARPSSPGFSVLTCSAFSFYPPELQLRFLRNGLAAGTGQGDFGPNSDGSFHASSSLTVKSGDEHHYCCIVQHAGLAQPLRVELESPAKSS
Chain of human FcRn (human) (P61769 21-119 limits assumed, chain 2 of 2, further chain): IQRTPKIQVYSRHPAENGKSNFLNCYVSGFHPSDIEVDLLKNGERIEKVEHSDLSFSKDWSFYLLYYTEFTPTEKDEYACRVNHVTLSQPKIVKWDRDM
Chain of cynomolgus FcRn (cynomolgus) (Q8SPV9 24-297 limits assumed, chain 1 of 2): as the sequence (P55899 24-297 limits assumed, chain 1 of 2) above, with N39D, E44Q, G99S, S189G, S190N, L217M, S269T counted along it
Chain of cynomolgus FcRn (cynomolgus) (Q8SPW0 21-119 limits assumed, chain 2 of 2, further chain): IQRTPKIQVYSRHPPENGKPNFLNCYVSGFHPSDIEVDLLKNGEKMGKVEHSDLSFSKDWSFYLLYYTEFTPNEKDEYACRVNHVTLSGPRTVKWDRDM

Row | Substance | Kd [1] [nM] | Kd (human FcRn (human)) [nM] | Kd [2] [nM] | koff [2] [s⁻¹] | kon [2] [M⁻¹ s⁻¹]
1 | IgG1 control (antibody) | 430 | 443 |  |  | 
2 | Control mAb (antibody) |  |  | 0.0379 | 0.000156 | 4.11e+06
